The target of assay [1] is histone H2B, within the H3Kc9me3 mononucleosome (X. laevis, UniProt P02281 2-126). Briefly: cross-linking.
For assay [2], the target named is histone H4, within the H3Kc9me3 mononucleosome (X. laevis, UniProt P62799 2-103). Briefly: cross-linking.

B1: Swi6 (S. pombe HP1 protein) (natural protein)
chain: MKKGGVRSYRRSSTSKRSVIDDDSEPELPSMTKEAIASHKADSGSSDNEVESDHESKSSSKKLKENAKEEEGGEEEEEDEYVVEKVLKHRMARKGGGYEYLLKWEGYDDPSDNTWSSEADCSGCKQLIEAYWNEHGGRPEPSKRKRTARPKKPEAKEPSPKSRKTDEDKHDKDSNEKIEDVNEKTIKFADKSQEEFNENGPPSGQPNGHIESDNESKSPSQKESNESEDIQIAETPSNVTPKKKPSPEVPKLPDNRELTVKQVENYDSWEDLVSSIDTIERKDDGTLEIYLTWKNGAISHHPSTITNKKCPQKMLQFYESHLTFRENE
B1: the binding result in assay [1] and in assay [2] was “binds” in each case.

Values taken from doi:10.1101/473132 (bioRxiv, 2018).
